FireProtDB (doi:10.1002/pro.5560040510)

Conditions: Bos taurus, glycine 40 mM, reversible: no, whole UniProt chain shown; for Tm / unfolding enthalpy (van 't Hoff): Thermal, Absorbance

B1: Adrenodoxin, mitochondrial wild type, P00257 (protein)
chain: MAARLLRVASAALGDTAGRWRLLARPRAGAGGLRGSRGPGLGGGAVATRTLSVSGRAQSSSEDKITVHFINRDGETLTTKGKIGDSLLDVVVQNNLDIDGFGACEGTLACSTCHLIFEQHIFEKLEAITDEENDMLDLAYGLTDRSRLGCQICLTKAMDNMTVRVPDAVSDARESIDMGMNSSKIE
Tm (pH 6.5): 47.5 °C | unfolding enthalpy (van 't Hoff) (pH 6.5): 90 kcal/mol | Tm (pH 7.4): 53.7 °C | unfolding enthalpy (van 't Hoff) (pH 7.4): 91.6 kcal/mol | unfolding free energy (pH 8.5, 25 °C, Urea, DSC): 5.02 kcal/mol | Tm (pH 8.5): 53.5 °C | unfolding enthalpy (van 't Hoff) (pH 8.5): 82 kcal/mol | Tm (pH 9.5): 54 °C | unfolding enthalpy (van 't Hoff) (pH 9.5): 79.2 kcal/mol | Tm (pH 10.5): 53.2 °C | unfolding enthalpy (van 't Hoff) (pH 10.5): 64.6 kcal/mol
